Reference: article PMC9552509

Biological target: TACC3 (UniProt Q9Y6A5)
Assay: co-IP with anti-FLAG and anti-TACC3
Settings: reference: wild-type stathmin1-FLAG; sites S16

Substance: stathmin1 (from UniProt P16949) stathmin1 S16A-FLAG
- binding against the reference: lost
